# In PMC10683472, “Deep Learning-Driven Library Design for the De Novo Discovery of Bioactive Thiopeptides” (ACS Central Science, 2023):
# *1 amine or outer side, *2 acyl side, *3 side chain or, on linkers, in order; H or OH if unused. Where no end group is shown, it is not given here. [ ]: non-standard residue; d: D form. hGln = L-homoglutamine, NC(=O)CCC[C@H](N[*:1])C(=O)[*:2]; pyridine‑bisazole = not defined here; Nle = CCCC[C@H](N)C(=O)O; Dha = C=C(N)C(=O)O
# B1: thiopeptide TL6 (synthetic) (peptide)
# chain: SWT[Nle]LFRLQSKLAISCSC
# modifications: bridge (positions not given here) via pyridine‑bisazole; reading uncertain; also: macrocycle closed through a pyridine-bisazole moiety, oxazole to thiazole change
# B2: thiopeptide TL19 (synthetic) (peptide)
# chain: SWIGRV[Nle]IK[Dha]SSCSC
# modifications: bridge (positions not given here) via pyridine‑bisazole; not fully specified (residue 11); reading uncertain; also: Ser11 is an oxazole, macrocycle closed through a pyridine-bisazole moiety
# B3: thiopeptide TL17 (synthetic) (peptide)
# chain: SWALLIKQIN[Nle]LY[hGln]SCSC
# modifications: bridge (positions not given here) via pyridine‑bisazole; reading uncertain; also: macrocycle closed through a pyridine-bisazole moiety, oxazole to thiazole change
# Molecular target: T1, toll-like receptor 10, extracellular domain (UniProt Q9BXR5 20-576)
# T1 construct: toll-like receptor 10 (TLR10), extracellular domain; also called TLR10; TLR10 cell surface receptor
# T1 sequence (looked up): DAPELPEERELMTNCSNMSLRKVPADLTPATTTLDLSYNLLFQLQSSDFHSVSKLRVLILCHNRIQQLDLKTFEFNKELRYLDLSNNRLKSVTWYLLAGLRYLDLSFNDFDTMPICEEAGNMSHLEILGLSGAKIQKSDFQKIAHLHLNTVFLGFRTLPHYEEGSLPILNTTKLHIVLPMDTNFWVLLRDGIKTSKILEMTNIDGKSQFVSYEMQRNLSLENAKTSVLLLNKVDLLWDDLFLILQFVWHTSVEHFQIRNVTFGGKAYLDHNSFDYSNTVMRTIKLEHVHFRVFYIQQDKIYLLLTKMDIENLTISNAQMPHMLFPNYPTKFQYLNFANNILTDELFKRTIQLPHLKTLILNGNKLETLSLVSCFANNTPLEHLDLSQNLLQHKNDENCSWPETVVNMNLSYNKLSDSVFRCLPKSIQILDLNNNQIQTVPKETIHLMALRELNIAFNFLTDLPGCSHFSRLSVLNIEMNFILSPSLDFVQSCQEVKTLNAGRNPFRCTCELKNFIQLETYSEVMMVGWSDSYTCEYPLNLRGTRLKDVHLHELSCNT
# Assay: SPR; surface plasmon resonance of synthetic thiopeptides on their target protein; conditions in S.I. 2.10 (not shown)
# Conditions: both partners purified
row,Binder,Kd [nM]
1,B1,630
2,B2,570
3,B3,360
